The source of these data is US20100074886A1, “CCR2 ANTAGONISTS FOR TREATMENT OF FIBROSIS” (priority 2006, published 2010).

This assay concerns the target Human MCP-1 (CCL2), monocyte chemoattractant protein 1 (human), P13500. Description: cell-based or functional assay.

Some results are limits rather than exact numbers.

Human MCP-1 (CCL2), monocyte chemoattractant protein 1 (human), P13500, sequence (P13500 24-99): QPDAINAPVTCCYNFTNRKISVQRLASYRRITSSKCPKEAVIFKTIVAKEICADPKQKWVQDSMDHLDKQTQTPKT

B1: CCL2-neutralizing antibody CNTO888 (antibody, V domains shown)
VH: QVQLVQSGAEVKKPGSSVKVSCKASGGTFSSYGISWVRQAPGQGLEWMGGIIPIFGTANYAQKFQGRVTITADESTSTAYMELSSLRSEDTAVYYCARYDGIYGELDFWGQGTLVTVSS
VL: not shown
modifications: not checked
Take B1: the CCL2 gene expression in fibrotic cell line 126, percent of untreated cell level (percent of untreated cell level) was determined as 2; the CXCL5 gene expression in fibrotic cell line 126, percent of untreated cell level (percent of untreated cell level) is < 1; the CXCL5 protein level in supernatant of fibrotic cell line 126 with Anti-CCL2 worked out at 32; the CXCL5 protein, percent of untreated (percent of untreated) was < 1. In addition, the G-CSF protein level in supernatant of fibrotic cell line 126 with Anti-CCL2 came out at 1; the G-CSF protein, percent of untreated (percent of untreated) was < 1; the IL6 gene expression in fibrotic cell line 126, percent of untreated cell level (percent of untreated cell level) was < 1; the IL6 protein level in supernatant of fibrotic cell line 126 with Anti-CCL2 was determined as 40. Also, the IL6 protein, percent of untreated (percent of untreated) is < 1; the IL8 protein level in supernatant of fibrotic cell line 126 with Anti-CCL2 was 308; the IL8 protein, percent of untreated (percent of untreated) amounted to 2; the IL13Ra2 gene expression in fibrotic cell line 126, percent of untreated cell level (percent of untreated cell level) stood at 5. This molecule also registered a VEGF protein level in supernatant of fibrotic cell line 126 with Anti-CCL2 of 175; a VEGF protein, percent of untreated (percent of untreated) of 23; a fold reduction of G-CSF protein with CNTO 888 of 6800 fold; a fold reduction of VEGF protein with CNTO 888 of 4 fold.
